These results are taken from paper doi:10.1101/203372 (bioRxiv, 2017).

Assay [1] deals with Ubiquitin, human, recombinant (tag-free mono-Ub) (human, UniProt P0CG48 1-76). The assay can be described thus: MST.
For assay [2], the target named is Ubiquitin, human, recombinant, His-tag (His6-Ub) (human, UniProt P0CG48 1-76). The assay can be described thus: MST.

B1: HDAC6-EGFP WT (full-length human histone deacetylase 6 fused to EGFP) (enzyme)
chain: MTSTGQDSTTTRQRRSRQNPQSPPQDSSVTSKRNIKKGAVPRSIPNLAEVKKKGKMKKLGQAMEEDLIVGLQGMDLNLEAEALAGTGLVLDEQLNEFHCLWDDSFPEGPERLHAIKEQLIQEGLLDRCVSFQARFAEKEELMLVHSLEYIDLMETTQYMNEGELRVLADTYDSVYLHPNSYSCACLASGSVLRLVDAVLGAEIRNGMAIIRPPGHHAQHSLMDGYCMFNHVAVAARYAQQKHRIRRVLIVDWDVHHGQGTQFTFDQDPSVLYFSIHRYEQGRFWPHLKASNWSTTGFGQGQGYTINVPWNQVGMRDADYIAAFLHVLLPVALEFQPQLVLVAAGFDALQGDPKGEMAATPAGFAQLTHLLMGLAGGKLILSLEGGYNLRALAEGVSASLHTLLGDPCPMLESPGAPCRSAQASVSCALEALEPFWEVLVRSTETVERDNMEEDNVEESEEEGPWEPPVLPILTWPVLQSRTGLVYDQNMMNHCNLWDSHHPEVPQRILRIMCRLEELGLAGRCLTLTPRPATEAELLTCHSAEYVGHLRATEKMKTRELHRESSNFDSIYICPSTFACAQLATGAACRLVEAVLSGEVLNGAAVVRPPGHHAEQDAACGFCFFNSVAVAARHAQTISGHALRILIVDWDVHHGNGTQHMFEDDPSVLYVSLHRYDHGTFFPMGDEGASSQIGRAAGTGFTVNVAWNGPRMGDADYLAAWHRLVLPIAYEFNPELVLVSAGFDAARGDPLGGCQVSPEGYAHLTHLLMGLASGRIILILEGGYNLTSISESMAACTRSLLGDPPPLLTLPRPPLSGALASITETIQVHRRYWRSLRVMKVEDREGPSSSKLVTKKAPQPAKPRLAERMTTREKKVLEAGMGKVTSASFGEESTPGQTNSETAVVALTQDQPSEAATGGATLAQTISEAAIGGAMLGQTTSEEAVGGATPDQTTSEETVGGAILDQTTSEDAVGGATLGQTTSEEAVGGATLAQTTSEAAMEGATLDQTTSEEAPGGTELIQTPLASSTDHQTPPTSPVQGTTPQISPSTLIGSLRTLELGSESQGASESQAPGEENLLGEAAGGQDMADSMLMQGSRGLTDQAIFYAVTPLPWCPHLVAVCPIPAAGLDVTQPCGDCGTIQENWVCLSCYQVYCGRYINGHMLQHHGNSGHPLVLSYIDLSAWCYYCQAYVHHQALLDVKNIAHQNKFGEDMPHPH
Usually Kd stands for the free concentration of one partner at which half of the binding sites on the other are occupied at equilibrium, for simple one-to-one binding. For the molecule B1, the values for the Kd in assay [1] and in assay [2] were 1250 ± 147 nM and 69 nM, respectively.
